Data as given in the supplement of paper PMC12764529.
± gives the half width of the 95% confidence interval.

Key:
[1] = folding stability dG unfold from trypsin proteolysis; higher = more stable
In short: (§1)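 Designed mini-proteins (under 80 residues, no cysteine) in a PA-tagged cDNA display construct were digested with trypsin and chymotrypsin. Each protease was used at 11 concentrations (threefold dilutions) plus a no-protease condition, followed by sequencing. K50 was inferred by Bayesian fitting of sequencing counts, and unfolding free energy was derived against a sequence-predicted unfolded-state K50 and a shared folded-state K50, per protease or combined. Only designs with AlphaFold2 dimer inter-PAE above 15 were kept.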

[2] = folding stability dG unfold from chymotrypsin proteolysis; higher = more stable
In short: as §1

[3] = folding stability dG unfold (combined trypsin and chymotrypsin); higher = more stable
In short: as §1

Sequence	folding stability dG unfold [1]	folding stability dG unfold [2]	folding stability dG unfold [3]
SAGGSAGGSSSSTLISVEPSPGIVTVERPLSLDPVPVVERRIMTVSPSSSLSVTETSVFPVSLLSAGGSAGG [r6_970_JUSTAS]	0.818 ± 0.095 kcal/mol	0.932 ± 0.24 kcal/mol	1.02 ± 0.15 kcal/mol
SAGGSAGGSSSVTPVPETTLVTLTPPDGSPPVLGTVFPATGTMLLFYPDSVLLLPLGPGTTLFSAGGSAGGS [r12_536_JUSTAS]	0.888 ± 0.034 kcal/mol	0.503 ± 0.08 kcal/mol	0.82 ± 0.079 kcal/mol
SAGGSAGGSSVEVTEDPSTGKLTVTVPPDLTSVTIKEKDKTITIPLPPGASITLPSGTVTVALSAGGSAGGS [r20_26_JUSTAS]	1.56 ± 0.059 kcal/mol	-0.168 ± 0.1 kcal/mol	0.935 ± 0.1 kcal/mol
SAGGSAGGSSVEYTFLSKNPEEAKKKFEEKIKEIEEKGEGKIEKAEFTIVSPDNPEYLKLISSSAGGSAGGS [r12_551_JUSTAS]	0.213 ± 0.05 kcal/mol	0.136 ± 0.26 kcal/mol	0.259 ± 0.13 kcal/mol
SAGGSAGGSSVPEGWEVEREKVLEAEIVGEDGPVLRVRLYRVRVRPVDGPPRYFFELDVDDVDSAGGSAGGS [r12_544_TrMRF]	2.38 ± 0.095 kcal/mol	2.915 ± 0.027 kcal/mol	2.74 ± 0.11 kcal/mol
SAGGSAGGSSVSVGVPSSYASVEVTVLKEEPGKGLVTVKVTTTVPGTGEVLTETVTIPRSELLSAGGSAGGS [r12_964_JUSTAS]	1.01 ± 0.034 kcal/mol	0.517 ± 0.043 kcal/mol	0.828 ± 0.046 kcal/mol
SAGGSAGGSSYLVEVISRKKVKVGGKERYVVPVRIPDNGELVELVVSEDVAKNIKPGDVVVLSSAGGSAGGS [r12_382_TrMRF]	-0.00477 ± 0.058 kcal/mol	-0.00598 ± 0.12 kcal/mol	0.0239 ± 0.12 kcal/mol
SAGGSAGGSTAKEIADKLGFDNVEIKPTKPVEQRKDPNGKWRRQYVYTIKIRNPDGREWTIPISAGGSAGGS [r12_221_TrROS]	0.626 ± 0.093 kcal/mol	0.449 ± 0.24 kcal/mol	0.528 ± 0.13 kcal/mol
SAGGSAGGSTLTVEIQITDADGNTLTAKVTLTFEPAPPPPPPPTVERRTTTVDGKTVTEYRRLSAGGSAGGS [r12_128_TrROS_Hall]	0.631 ± 0.18 kcal/mol	1.04 ± 0.22 kcal/mol	0.969 ± 0.13 kcal/mol
SAGGSAGGSTVEEELLEKAAAAHPPGTTLTVDVVIVDPNNPVPIGTRTVTITVNADGSYTVVDSAGGSAGGS [r20_151_JUSTAS]	2.18 ± 0.07 kcal/mol	2.65 ± 0.054 kcal/mol	2.46 ± 0.09 kcal/mol
SAGGSAGGSTVTIEIPGFKTPEEIAKAIAEKTGKKVKEVKVEKDKKNKTYTITVTVDGKEITFSAGGSAGGS [r12_935_TrROS_Hall]	0.333 ± 0.082 kcal/mol	1.03 ± 0.087 kcal/mol	0.805 ± 0.15 kcal/mol
SAGGSAGGSVEDVVKKENVEKAEVKPEPNPPVTLTKITSKNPNSNTTLTGTLVVVDPKNGLLLSAGGSAGGS [r12_133_JUSTAS]	-0.344 ± 0.12 kcal/mol	0.157 ± 0.21 kcal/mol	0.0723 ± 0.11 kcal/mol
SAGGSAGGSVIPYFDENAVALLVKGPGDYYRIIFKPNDGYLVLLLPKEVIKSKPIPIGELLKKSAGGSAGGS [r20_90_TrMRF]	0.672 ± 0.11 kcal/mol	1.33 ± 0.38 kcal/mol	0.948 ± 0.43 kcal/mol
SAGGSAGGSVKVYTIEFLGDGKPYLLSIDDNGNFVIYVPNPKNIDAVKKAIPSNYKIVEIKPLSAGGSAGGS [r12_9_TrMRF]	0.989 ± 0.036 kcal/mol	2.01 ± 0.13 kcal/mol	1.52 ± 0.17 kcal/mol
SAGGSAGGSVLPDVLRTLFPDAKVTVKVTEVSETSATVDVEVEVPVPGGSTRRFRLKLEVPLSSAGGSAGGS [r20_78_TrMRF]	1.78 ± 0.029 kcal/mol	2.34 ± 0.044 kcal/mol	2.14 ± 0.066 kcal/mol
SAGGSAGGSVVPVKAVFKLPDGDEVEGLALVDNRPDGSLVVLFQLPGTGETVGSATAELLKVEGSAGGSAGG [r6_254_TrMRF]	0.523 ± 0.032 kcal/mol	0.727 ± 0.1 kcal/mol	0.638 ± 0.11 kcal/mol
SAGGSAGGSVYSAKSPDGYTITISNGGKPITLPVSDPAKAASLTLKTPDGKTATVTIVPASLASAGGSAGGS [r12_730_JUSTAS]	-0.229 ± 0.12 kcal/mol	-0.295 ± 0.23 kcal/mol	-0.216 ± 0.17 kcal/mol
SAGGSAGGSWEWITAEEALKRAREENPPGKPIEFHFEDPWYFTVRFDGEDPNDVTIEWVPLEKSAGGSAGGS [r12_648_TrROS]	1.39 ± 0.087 kcal/mol	1.47 ± 0.18 kcal/mol	1.4 ± 0.2 kcal/mol
SAGGSAGGSWIPLPDGYLIKITEVVPGGIRIKFPDMGNEITIPPGMPIKIKIIPVKDPDGEPISAGGSAGGS [r20_105_TrROS]	1.03 ± 0.056 kcal/mol	0.838 ± 0.05 kcal/mol	0.9 ± 0.14 kcal/mol
SAGGSAGGSWMYKKNPDGKLEPLPPIRPVPIKIPVPINGRWIPVPIWMTVADIDYIIKEFLKNSAGGSAGGS [r20_148_TrROS]	1.48 ± 0.042 kcal/mol	0.785 ± 0.15 kcal/mol	1.41 ± 0.15 kcal/mol
SAGGSAGGSWRTITYEFKLPKPGQTAEDIAKEIMQLFPGVKDIEIKYYPEEGYIKVDIRFRPNSAGGSAGGS [r20_31_TrROS]	3.37 ± 0.2 kcal/mol	2.88 ± 0.042 kcal/mol	3.13 ± 0.22 kcal/mol

Sequence	folding stability dG unfold [1]	folding stability dG unfold [2]	folding stability dG unfold [3]
SAGGSAGGSYWFSITFKINFWVIDGNRIHPVPIEITILIKIPPIPPDEMKPEPTPDGEPKYDFSAGGSAGGS [r12_1031_TrROS]	2.73 ± 0.15 kcal/mol	4.64 ± 0.2 kcal/mol	4.29 ± 0.23 kcal/mol
SAGGSAGGSYYMIEIEFPDTGQRITFPFKSLEEAKEFLPPGAPIREIEVQPIKPPVDPEQQNESAGGSAGGS [r12_851_TrROS]	0.809 ± 0.054 kcal/mol	1.31 ± 0.12 kcal/mol	1.24 ± 0.11 kcal/mol
SAGGSAGGTATLVLPAAAFPSRPDGSLGLEEIRDVARPIAQEAFGTDDITLDVESHPDGFVTITFSSAGGSA [r15_562_TrMRF]	0.642 ± 0.027 kcal/mol	0.197 ± 0.17 kcal/mol	0.519 ± 0.072 kcal/mol
SAGGSAGGTISFPNATATITVEENSVTITVTNADGQPTTFTIPLPIPKAKPFTLPDGTKLYLIASAGGSAGG [r6_806_TrMRF]	1.94 ± 0.083 kcal/mol	2.31 ± 0.16 kcal/mol	2.31 ± 0.21 kcal/mol
SAGGSAGGTSVADELEEEFKAKGYPAEVTVTKLPDDTTLVTVTVTDPKTGKSTTTTVTVSPAEASAGGSAGG [r6_692_JUSTAS]	1.02 ± 0.076 kcal/mol	1.01 ± 0.12 kcal/mol	0.861 ± 0.16 kcal/mol
SAGGSAGGVERIKKLLEELGAEVVKVEKLENGKTLIYIKVKSEEQREALKALLPEEDIEIIEPESAGGSAGG [r6_83_TrROS_Hall]	4.69 ± 0.58 kcal/mol	4.47 ± 0.17 kcal/mol	4.43 ± 0.17 kcal/mol
SAGGSAGGVKEALEELLKKLKPGEKKTITLEIEVDGKLVKIEIEVLPDGEIKITKIEEIPKEDLSAGGSAGG [r6_87_TrROS_Hall]	2.97 ± 0.12 kcal/mol	1.95 ± 0.096 kcal/mol	2.47 ± 0.16 kcal/mol
SAGGSAGGVKIEVETRTETLPDGSTRTVMRVKIELPAPPPPPPPPTRTVTETTEDGETRTTTVRSAGGSAGG [r6_778_TrROS_Hall]	0.626 ± 0.13 kcal/mol	2.07 ± 0.066 kcal/mol	1.64 ± 0.17 kcal/mol
SAGGSAGGVPEVVEEVAREVDPRIVTRVEVRVFEPPPEYRLVVVVVELRLPTERRFVPRVVRLRSAGGSAGG [r6_630_TrMRF]	2.85 ± 0.19 kcal/mol	3.49 ± 0.066 kcal/mol	3.25 ± 0.31 kcal/mol
SAGGSAGGVVPLEELAKRLGWSPEFLRELEEKGIKVELERVTPDKVVVTLTEPGTGETKTIELPSAGGSAGG [r6_969_JUSTAS]	3.19 ± 0.24 kcal/mol	2.82 ± 0.13 kcal/mol	3.08 ± 0.17 kcal/mol
SAGGSAGGWIEIDPETGTIEIWMPPNDIEPLVDEIAEELGWKVKVKVEPNPEGWVRHTITIPPKSAGGSAGG [r6_419_TrROS]	-0.109 ± 0.087 kcal/mol	0.281 ± 0.35 kcal/mol	0.39 ± 0.23 kcal/mol
SAGGSAGGWIEINILVPLKPGQTPSELADEIAQEFQNQHGWEIKIDDVYPTDNYVWHKIEITPPSAGGSAGG [r6_639_TrROS]	0.864 ± 0.031 kcal/mol	1.49 ± 0.055 kcal/mol	1.29 ± 0.083 kcal/mol
SAGGSAGGWIIRIHFPNGHEHTFKIKSPEEAKDRIMDHHGMPPDKIPPETIKDVEIIPPDAMKESAGGSAGG [r6_588_TrROS]	-0.0377 ± 0.11 kcal/mol	0.604 ± 0.12 kcal/mol	0.434 ± 0.18 kcal/mol
SAGGSAGGWITLDLIKELAREAMNQAQLNGMENVPIEIRWPDGWRIKIEINMNKVEVDVQPWNDSAGGSAGG [r6_270_TrROS]	1.9 ± 0.11 kcal/mol	2.57 ± 0.079 kcal/mol	2.4 ± 0.15 kcal/mol
SAGGSAGGWKIIEVDPKKGVVMIEMDPEEGNWYVRVPNGPIQRFDSPEEIEEKFGFPVEIYPLPSAGGSAGG [r6_753_TrROS]	1.3 ± 0.098 kcal/mol	0.816 ± 0.092 kcal/mol	1.14 ± 0.17 kcal/mol
SAGGSAGGYWKVEIKNGMTFSIPGMTLDEAKNHARWHGFPMPIDKIEIEPVKPPPPPPKDPDDQSAGGSAGG [r6_688_TrROS]	2.27 ± 0.14 kcal/mol	2.95 ± 0.22 kcal/mol	2.75 ± 0.35 kcal/mol
SAGGSAGGYWMISVKIYDPEDGKPIAQMTFMFDSPEEAERIVEEIADALPPGYRVEVDIHPIPNSAGGSAGG [r6_690_TrROS]	3.82 ± 0.12 kcal/mol	4.99 ± 0.14 kcal/mol	4.85 ± 0.16 kcal/mol
SAGGSAGIEERLKKLAEELGLEVKVTKVEVKVDGKEEVVVEVEVEPPPPPVEVKELSEEERKKAEESAGGSA [r15_256_TrROS_Hall]	1.27 ± 0.21 kcal/mol	0.99 ± 0.19 kcal/mol	1.13 ± 0.23 kcal/mol
SAGGSAGIEVHPEGTVRIEVGGRSLTVTPADAVDVTQEGDKIVVTITRRDADGTPVGTLPVTVELASAGGSA [r15_424_JUSTAS]	-0.75 ± 0.088 kcal/mol	0.835 ± 0.018 kcal/mol	0.52 ± 0.045 kcal/mol
SAGGSAGLPEAIAEAIARELQAEPGYELDVEAEVDPETGTLHIRARVRLPDDDTWFELEITVPLPASAGGSA [r15_464_TrMRF]	1.75 ± 0.084 kcal/mol	3.22 ± 0.12 kcal/mol	2.93 ± 0.13 kcal/mol
SAGGSAGMDPSKVSLSISTKTYTDTATGRKVEELYFEGSGKKVTVTTLPDGTKIVTYENGVVIEVESAGGSA [r15_617_JUSTAS]	0.758 ± 0.024 kcal/mol	-0.672 ± 0.24 kcal/mol	0.314 ± 0.054 kcal/mol
